# Reference: patent publication US20240018252A1
# Values joined by “and” are separate entries in the source; they are usually repeats but may differ in a detail not shown here. Equal values may be shown once.
# What was measured:
# [1] = target: human BCMA on BCMA-expressing tumor cells (human) (UniProt Q02223); assay: cell-based or functional assay
# [2] = target: human BCMA (B-Cell Maturation Antigen) on myeloma cells (human) (UniProt Q02223); assay: cell-based or functional assay
# [3] = target: human CD3 (huCD3ed) (human) (UniProt P07766); assay: Biacore SPR, bispecific hIgG2dA format, 37 C; CD3 antigen not given
# Sequence of human CD3 (huCD3ed) (human) (P07766 23-126, chain 1 of 2): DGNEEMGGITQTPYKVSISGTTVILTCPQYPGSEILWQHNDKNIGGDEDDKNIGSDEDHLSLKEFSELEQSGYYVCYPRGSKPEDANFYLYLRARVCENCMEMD
# Sequence of human CD3 (huCD3ed) (human) (P04234 22-105, chain 2 of 2, further chain): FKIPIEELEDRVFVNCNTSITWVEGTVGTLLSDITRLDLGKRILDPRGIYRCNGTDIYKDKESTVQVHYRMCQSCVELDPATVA
# Sequence of human BCMA on BCMA-expressing tumor cells (human) (Q02223 whole entry): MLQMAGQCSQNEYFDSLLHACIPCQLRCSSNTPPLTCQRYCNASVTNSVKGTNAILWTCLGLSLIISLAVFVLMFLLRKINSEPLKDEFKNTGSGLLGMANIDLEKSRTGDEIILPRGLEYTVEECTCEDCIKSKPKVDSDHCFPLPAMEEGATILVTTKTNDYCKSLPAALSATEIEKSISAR
# Sequence of human BCMA (B-Cell Maturation Antigen) on myeloma cells (human) (Q02223 whole entry): as above
Binder,"EC50, T-cell mediated cytotoxicity (LDH release, 20 h) on KMS12BM (BCMA+) cells [2] [nM]","EC50, T-cell mediated cytotoxicity (LDH release, 20 h) on KMS12PE (BCMA+++) cells [2] [nM]","EC50, T-cell mediated cytotoxicity (LDH release, 20 h) on MOLP8 (MOLP8+) cells [2] [nM]",other results
"A02_Rd4_6nM_C01 N297Q/K222R Aclys vc0101 (antibody, V domains shown, N297Q and K222R (EU) in the human IgG1 constant region; AcLys-Val-Cit-PABC-Aur0101 joined by transglutaminase to the glutamine at 297) VH: EVQLLESGGGLVQPGGSLRLSCAASGFTFSSYAMNWVRQAPGKGLEWVSAITASGGSTYYADSVKGRFTISRDNSKNTLYLQMNSLRAEDTAVYYCARYWPMSLWGQGTLVTVSS VL: EIVLTQSPGTLSLSPGERATLSCRASQSVSAYYLAWYQQKPGQAPRLLMYDASIRATGIPDRFSGSGSGTDFTLTISRLEPEDFAVYYCQQYERWPLTFGQGTKVEIK",–,–,–,"EC50, cell viability (CellTiter-Glo, 96 h), KMS12BM LUCGFP (+) [1]: 18.7 nM and 2.8 µg/mL; EC50, cell viability (CellTiter-Glo, 96 h), L363 LUCGFP (+) [1]: 2.53 nM and 0.38 µg/mL; EC50, cell viability (CellTiter-Glo, 96 h), MM1.S LUCGFP (BCMA++) [1]: 0.26 nM and 0.04 µg/mL"
"A02_Rd4_6nM_C16/h2B4 anti-BCMA/CD3 bispecific (bispecific antibody, V domains shown) VH 1: EVQLLESGGGLVQPGGSLRLSCAASGFTFSSYAMNWVRQAPGKGLEWVSAISDFGGSTYYADSVKGRFTISRDNSKNTLYLQMNSLRAEDTAVYYCARYWPMDIWGQGTLVTVSS VL 1: EIVLTQSPGTLSLSPGERATLSCRASQSVSDLYLAWYQQKPGQAPRLLMYDASIRATGIPDRFSGSGSGTDFTLTISRLEPEDFAVYYCQQYQTWPLTFGQGTKVEIK VH 2: EVQLVESGGGLVQPGGSLRLSCAASGFTFSDYYMTWVRQAPGKGLEWVAFIRNRARGYTSDHNASVKGRFTISRDNAKNSLYLQMNSLRAEDTAVYYCARDRPSYYVLDYWGQGTTVTVSS VL 2: DIVMTQSPDSLAVSLGERATINCTSSQSLFNVRSRKNYLAWYQQKPGQPPKLLISWASTRESGVPDRFSGSGSGTDFTLTISSLQAEDVAVYYCKQSYDLFTFGSGTKLEIK",0.052,0.186,0.315,"EC50 (nM), killing of primary myeloma cells in bone marrow mononuclear cells of patient MM00146 (flow cytometry, day 5) [2]: 0.029 nM"
"P5A2/h2B4 anti-BCMA/CD3 bispecific (bispecific antibody, V domains shown) VH 1: EVQLLESGGGLVQPGGSLRLSCAASGFTFSSYAMNWVRQAPGKGLEWVSAISDSGGSTYYADSVKGRFTISRDNSKNTLYLQMNSLRAEDTAVYYCARYWPMDIWGQGTLVTVSS VL 1: EIVLTQSPGTLSLSPGERATLSCRASQSVSSSYLAWYQQKPGQAPRLLMYDASIRATGIPDRFSGSGSGTDFTLTISRLEPEDFAVYYCQQYGSWPLTFGQGTKVEIK VH 2: EVQLVESGGGLVQPGGSLRLSCAASGFTFSDYYMTWVRQAPGKGLEWVAFIRNRARGYTSDHNASVKGRFTISRDNAKNSLYLQMNSLRAEDTAVYYCARDRPSYYVLDYWGQGTTVTVSS VL 2: DIVMTQSPDSLAVSLGERATINCTSSQSLFNVRSRKNYLAWYQQKPGQPPKLLISWASTRESGVPDRFSGSGSGTDFTLTISSLQAEDVAVYYCKQSYDLFTFGSGTKLEIK",1.51,0.371,5.23,"EC50 (nM), killing of primary myeloma cells in bone marrow mononuclear cells of patient MM00146 (flow cytometry, day 5) [2]: 0.946 nM"
"A02_Rd4_0.6nM_C01/h2B4 anti-BCMA/CD3 bispecific (bispecific antibody, V domains shown) VH 1: EVQLLESGGGLVQPGGSLRLSCAASGFTFSSYAMNWVRQAPGKGLEWVSAILSSGGSTYYADSVKGRFTISRDNSKNTLYLQMNSLRAEDTAVYYCARYWPMDIWGQGTLVTVSS VL 1: EIVLTQSPGTLSLSPGERATLSCRGGQSVSSSYLAWYQQKPGQAPRLLMYDASIRATGIPDRFSGSGSGTDFTLTISRLEPEDFAVYYCQQYQSWPLTFGQGTKVEIK VH 2: EVQLVESGGGLVQPGGSLRLSCAASGFTFSDYYMTWVRQAPGKGLEWVAFIRNRARGYTSDHNASVKGRFTISRDNAKNSLYLQMNSLRAEDTAVYYCARDRPSYYVLDYWGQGTTVTVSS VL 2: DIVMTQSPDSLAVSLGERATINCTSSQSLFNVRSRKNYLAWYQQKPGQPPKLLISWASTRESGVPDRFSGSGSGTDFTLTISSLQAEDVAVYYCKQSYDLFTFGSGTKLEIK",0.078,0.073,0.55,"EC50 (nM), killing of primary myeloma cells in bone marrow mononuclear cells of patient MM00146 (flow cytometry, day 5) [2]: 0.064 nM"
"C01_Rd4_6nM_C12/h2B4 anti-BCMA/CD3 bispecific (bispecific antibody, V domains shown) VH 1: EVQLLESGGGLVQPGGSLRLSCAASGFTFSSYPMSWVRQAPGKGLEWVSAIGGSGGWSYYADSVKGRFTISRDNSKNTLYLQMNSLRAEDTAVYYCARYWPMDSWGQGTLVTVSS VL 1: EIVLTQSPGTLSLSPGERATLSCWLSQSVSSTYLAWYQQKPGQAPRLLIYDASSRAPGIPDRFSGSGSGTDFTLTISRLEPEDFAVYYCQQYSEWPLTFGQGTKVEIK VH 2: EVQLVESGGGLVQPGGSLRLSCAASGFTFSDYYMTWVRQAPGKGLEWVAFIRNRARGYTSDHNASVKGRFTISRDNAKNSLYLQMNSLRAEDTAVYYCARDRPSYYVLDYWGQGTTVTVSS VL 2: DIVMTQSPDSLAVSLGERATINCTSSQSLFNVRSRKNYLAWYQQKPGQPPKLLISWASTRESGVPDRFSGSGSGTDFTLTISSLQAEDVAVYYCKQSYDLFTFGSGTKLEIK",0.415,0.189,0.85,–
"P5C1/h2B4 anti-BCMA/CD3 bispecific (bispecific antibody, V domains shown) VH 1: EVQLLESGGGLVQPGGSLRLSCAASGFTFSSYPMSWVRQAPGKGLEWVSAIGGSGGSTYYADSVKGRFTISRDNSKNTLYLQMNSLRAEDTAVYYCARYWPMDSWGQGTLVTVSS VL 1: EIVLTQSPGTLSLSPGERATLSCRASQSVSSTYLAWYQQKPGQAPRLLIYDASSRAPGIPDRFSGSGSGTDFTLTISRLEPEDFAVYYCQQYSTSPLTFGQGTKVEIK VH 2: EVQLVESGGGLVQPGGSLRLSCAASGFTFSDYYMTWVRQAPGKGLEWVAFIRNRARGYTSDHNASVKGRFTISRDNAKNSLYLQMNSLRAEDTAVYYCARDRPSYYVLDYWGQGTTVTVSS VL 2: DIVMTQSPDSLAVSLGERATINCTSSQSLFNVRSRKNYLAWYQQKPGQPPKLLISWASTRESGVPDRFSGSGSGTDFTLTISSLQAEDVAVYYCKQSYDLFTFGSGTKLEIK",4.12,0.581,–,–
"A02_Rd4_6nM_C01/h2B4 anti-BCMA/CD3 bispecific (bispecific antibody, V domains shown) VH 1: EVQLLESGGGLVQPGGSLRLSCAASGFTFSSYAMNWVRQAPGKGLEWVSAITASGGSTYYADSVKGRFTISRDNSKNTLYLQMNSLRAEDTAVYYCARYWPMSLWGQGTLVTVSS VL 1: EIVLTQSPGTLSLSPGERATLSCRASQSVSAYYLAWYQQKPGQAPRLLMYDASIRATGIPDRFSGSGSGTDFTLTISRLEPEDFAVYYCQQYERWPLTFGQGTKVEIK VH 2: EVQLVESGGGLVQPGGSLRLSCAASGFTFSDYYMTWVRQAPGKGLEWVAFIRNRARGYTSDHNASVKGRFTISRDNAKNSLYLQMNSLRAEDTAVYYCARDRPSYYVLDYWGQGTTVTVSS VL 2: DIVMTQSPDSLAVSLGERATINCTSSQSLFNVRSRKNYLAWYQQKPGQPPKLLISWASTRESGVPDRFSGSGSGTDFTLTISSLQAEDVAVYYCKQSYDLFTFGSGTKLEIK",0.057,–,0.06,–
"COMBO_Rd4_0.6nM_C22/h2B4 anti-BCMA/CD3 bispecific (bispecific antibody, V domains shown) VH 1: EVQLLESGGGLVQPGGSLRLSCAASGFTFSSYAMNWVRQAPGKGLEWVSAISDSGGSRWYADSVKGRFTISRDNSKNTLYLQMNSLRAEDTAVYYCTRYWPMDIWGQGTLVTVSS VL 1: EIVLTQSPGTLSLSPGERATLSCRASVRVSSTYLAWYQQKPGQAPRLLMYDASIRATGIPDRFSGSGSGTDFTLTISRLEPEDFAVYYCQQYMKWPLTFGQGTKVEIK VH 2: EVQLVESGGGLVQPGGSLRLSCAASGFTFSDYYMTWVRQAPGKGLEWVAFIRNRARGYTSDHNASVKGRFTISRDNAKNSLYLQMNSLRAEDTAVYYCARDRPSYYVLDYWGQGTTVTVSS VL 2: DIVMTQSPDSLAVSLGERATINCTSSQSLFNVRSRKNYLAWYQQKPGQPPKLLISWASTRESGVPDRFSGSGSGTDFTLTISSLQAEDVAVYYCKQSYDLFTFGSGTKLEIK",0.049,0.115,0.065,–
"Combo_Rd4_0.6nM_C29/h2B4 anti-BCMA/CD3 bispecific (bispecific antibody, V domains shown) VH 1: EVQLLESGGGLVQPGGSLRLSCAASGFTFSSYPMSWVRQAPGKGLEWVSAIGGSGGSLPYADSVKGRFTISRDNSKNTLYLQMNSLRAEDTAVYYCARYWPMDIWGQGTLVTVSS VL 1: EIVLTQSPGTLSLSPGERATLSCRASQSVSSSYLAWYQQKPGQAPRLLMYDASIRATGIPDRFSGSGSGTDFTLTISRLEPEDFAVYYCQQYQSWPLTFGQGTKVEIK VH 2: EVQLVESGGGLVQPGGSLRLSCAASGFTFSDYYMTWVRQAPGKGLEWVAFIRNRARGYTSDHNASVKGRFTISRDNAKNSLYLQMNSLRAEDTAVYYCARDRPSYYVLDYWGQGTTVTVSS VL 2: DIVMTQSPDSLAVSLGERATINCTSSQSLFNVRSRKNYLAWYQQKPGQPPKLLISWASTRESGVPDRFSGSGSGTDFTLTISSLQAEDVAVYYCKQSYDLFTFGSGTKLEIK",0.049,0.175,0.201,"EC50 (nM), killing of primary myeloma cells, patient MM00146, E:T 1:1 [2]: 0.035 nM; EC50 (nM), killing of primary myeloma cells, patient MM00147, E:T 2:1 [2]: 0.031 nM; EC50 (nM), killing of primary myeloma cells, patient MM00151, E:T 3:1 [2]: 0.02 nM; EC50 (nM), killing of primary myeloma cells, patient MM00152, E:T 1:2 [2]: 0.289 nM"
"h25A8-B13_Ep (bispecific antibody, part only; not given: anti-EpCam arm, constant regions, V domains shown, not shown: another chain or arm of the molecule; a dimerising Fc or GST; small tags and cut ends) VH: EVQLVESGGGLVKPGGSLRLSCAASGFTFSTYAMNWVRQAPGKGLEWVGRIRSKINNYATYYAESVKGRFTISRDDSKNTLYLQMNSLKTEDTAVYYCVRHETLRSGISWFASWGQGTLVTVSS VL: QAVVTQEPSLTVSPGGTVTLTCRTSTGAVTTSNYANWVQQKPGQAPRGLIGGTNTRAPGTPARFSGSLLGGKAALTLSGAQPEDEAEYYCVLWYNNHWVFGGGTKLTVL",–,–,–,Kd [3]: 18.3 nM; koff [3]: 0.0219 s⁻¹; kon [3]: 1.2e+06 M⁻¹ s⁻¹; t½ [3]: 31.8 s
"h25A8-C8_Ep (bispecific antibody, part only; not given: anti-EpCam arm, constant regions, V domains shown, not shown: another chain or arm of the molecule; a dimerising Fc or GST; small tags and cut ends) VH: EVQLVESGGGLVKPGGSLRLSCAASGFTFNTYAMNWVRQAPGKGLEWVGRIRSKINNYATYYAESVKGRFTISRDDSKNTLYLQMNSLKTEDTAVYYCVRHETLRSGISWFASWGQGTLVTVSS VL: QAVVTQEPSLTVSPGGTVTLTCRSSTGAVTTSNYANWVQQKPGQAPRGLIGGTNTRAPGTPARFSGSLLGGKAALTLSGAQPEDEAEYYCVLWYNNHWVFGGGTKLTVL",–,–,–,Kd [3]: 25.1 nM; koff [3]: 0.0301 s⁻¹; kon [3]: 1.2e+06 M⁻¹ s⁻¹; t½ [3]: 22.8 s
